These results are taken from patent US20150139990A1 (DAINIPPON SUMITOMO PHARMA, published 2015).

The target in one assay is T1, human CD81 mutant T163A (human, UniProt P60033 1-236, limits assumed).
T1 construct: as m30; not shown: C-terminal V5 and 6xHis tags
T1 sequence: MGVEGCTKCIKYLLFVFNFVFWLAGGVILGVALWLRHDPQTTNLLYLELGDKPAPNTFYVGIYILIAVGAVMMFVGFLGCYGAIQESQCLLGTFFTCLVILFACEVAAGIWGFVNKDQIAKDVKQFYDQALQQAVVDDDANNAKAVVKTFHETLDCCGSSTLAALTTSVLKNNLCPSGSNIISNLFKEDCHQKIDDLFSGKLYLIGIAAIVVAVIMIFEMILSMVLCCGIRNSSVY
Nature of the assay: ELISA.

A further assay has as its target T2, human CD81 mutant I194A (human, UniProt P60033 1-236, limits assumed).
T2 construct: as m30; not shown: C-terminal V5 and 6xHis tags
T2 sequence: T1 sequence with A163T, I194A
Nature of the assay: ELISA. On the technique in general: ELISA stands for enzyme-linked immunosorbent assay.

The target in a further assay is T3, human CD81 mutant V135L (human, UniProt P60033 1-236, limits assumed).
T3 construct: as m30; not shown: C-terminal V5 and 6xHis tags
T3 sequence: T1 sequence with V135L, A163T
Nature of the assay: ELISA.

In another assay the target is T4, human CD81 mutant D137E (human, UniProt P60033 1-236, limits assumed).
T4 construct: as m30; not shown: C-terminal V5 and 6xHis tags
T4 sequence: T1 sequence with D137E, A163T
Put plainly: ELISA.

A further assay concerns the target T5, human CD81 mutant H151R (human, UniProt P60033 1-236, limits assumed).
T5 construct: as m30; also called H151B; not shown: C-terminal V5 and 6xHis tags
T5 sequence: T1 sequence with H151R, A163T
Nature of the assay: ELISA.

For the next assay, the target named is T6, human CD81 mutant G158A (human, UniProt P60033 1-236, limits assumed).
T6 construct: as m30; not shown: C-terminal V5 and 6xHis tags
T6 sequence: T1 sequence with G158A, A163T
Put plainly: ELISA.

In the next assay the target is T7, human CD81 mutant A164V (human, UniProt P60033 1-236, limits assumed).
T7 construct: as m30; not shown: C-terminal V5 and 6xHis tags
T7 sequence: T1 sequence with A163T, A164V
Put plainly: ELISA.

For a further assay, the target named is T8, human CD81 mutant S168T (human, UniProt P60033 1-236, limits assumed).
T8 construct: as m30; not shown: C-terminal V5 and 6xHis tags
T8 sequence: T1 sequence with A163T, S168T
Nature of the assay: ELISA.

For another assay, the target named is T9, human CD81 mutant V169L (human, UniProt P60033 1-236, limits assumed).
T9 construct: as m30; not shown: C-terminal V5 and 6xHis tags
T9 sequence: T1 sequence with A163T, V169L
Put plainly: ELISA.

Assay [1] deals with T10, human CD81 on CD81-expressing cells (Jurkat E6.1, human PBMC, Ramos) (human, UniProt P60033 1-236).
T10 sequence: T1 sequence with A163T
Put plainly: cell-based or functional assay.

Substitutions are numbered along the chain they refer to. Numbers in names are those of the source.

B1: 002-A07 S115A (antibody, human IgG4 S228P, lambda, V domains shown)
VH: EVQLLESGGGLVQPGGSLRLSCAASGFTFSSNYMSWVRQAPGKGLEWVSYISSSSTYTDYADSVKGRFTISRDNSKNTLYLQMNSLRAEDTAVYYCARYSYGRDNFDYWGQGTLVTVSS
VL: QSVLTQPPSASGTPGQRVTISCTGSTSNIGAGYDTHWYQQLPGTAPKLLIYGNSNRPSGVPDRFSGSKSGTSASLAISGLRSEDEADYYCQSYDTNLAVWVFGGGTKLTVLG
notes: IgG4 S228P; glycosylation site mutant of 002-A07 VL
Consider B1, for which the relative binding affinity with human CD81 mutant T163A, with human CD81 mutant I194A, in the assay with human CD81 mutant V135L, with human CD81 mutant D137E, with human CD81 mutant H151R and with human CD81 mutant G158A was below 20% in each case. Also, the relative binding affinity in the assay with human CD81 mutant A164V, with human CD81 mutant S168T and in the assay with human CD81 mutant V169L was below 20% each time. In assay [1], the “Jurkat chemotaxis (% of control IgG4) at 0.001 µg/mL” value amounted to 82%. In addition, the “Jurkat chemotaxis (% of control IgG4) at 0.01 µg/mL” value in [1] was found to be 78%. In addition, the “Jurkat chemotaxis (% of control IgG4) at 0.1 µg/mL” value in [1] turned out to be 32%. Moreover, the “Jurkat chemotaxis (% of control IgG4) at 1 µg/mL” value in assay [1] was -4%. Further, the “Jurkat chemotaxis (% of control IgG4) at 10 µg/mL” value in assay [1] is -9%.

B2: 002-A07 S115G (antibody, human IgG4 S228P, lambda, V domains shown)
VH: B1 VH
VL: B1 VL with A98G
notes: as for B1
Take B2: the relative binding affinity in the assay with human CD81 mutant T163A, in the assay with human CD81 mutant I194A, with human CD81 mutant V135L, with human CD81 mutant D137E, with human CD81 mutant H151R and in the assay with human CD81 mutant G158A was below 20% each time. Besides, the relative binding affinity with human CD81 mutant A164V, in the assay with human CD81 mutant S168T and with human CD81 mutant V169L was below 20% throughout. In addition, in [1], the “Jurkat chemotaxis (% of control IgG4) at 0.001 µg/mL” value was 84%. The “Jurkat chemotaxis (% of control IgG4) at 0.01 µg/mL” value in [1] stood at 74%. In addition, the “Jurkat chemotaxis (% of control IgG4) at 0.1 µg/mL” value in [1] is 13%. In addition, the “Jurkat chemotaxis (% of control IgG4) at 1 µg/mL” value in assay [1] was -9%. Further, the “Jurkat chemotaxis (% of control IgG4) at 10 µg/mL” value in assay [1] was -3%.
